Measurements from the supplement of paper PMC7125110.
± gives the standard error. For some of these results: This sample holds only a part of the variants without activity.

B1: glmS ribozyme (parent)
chain: AUAAAAGCGCCAGAACUACAGAAAUGUAGUUGACGAGGAGGAGGUUUAUCGAAUUUUCGGCGGAUGCCUCCAAA

Tests used:
Details in all cases: with glucosamine-6-phosphate
glucosamine-6-phosphate [1] = variants of: B1; test: kcat; higher = faster cleavage; RNA array
How it was run: (§1)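 Ribozyme variants carrying barcodes were transcribed in situ on sequenced MiSeq chips by E. coli RNA polymerase and tracked at 37 °C with a hybridised Cy3 probe. They were exposed to 40 μM to 10 mM glucosamine-6-phosphate in HEPES/KCl/Mg(OAc)2 buffer. kobs came from exponential decay fits of normalised per-tile medians, and kcat and KM from weighted Michaelis–Menten fits.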

glucosamine-6-phosphate [2] = variants of: B1; test: KM; higher = weaker cofactor use; RNA array
How it was run: as §1

glucosamine-6-phosphate [3] = variants of: B1; test: self-cleavage kobs at 160 uM GlcN6P; higher = faster cleavage; RNA array
How it was run: as §1

glucosamine-6-phosphate [4] = variants of: B1; test: self-cleavage kobs at 640 uM GlcN6P; higher = faster cleavage; RNA array
How it was run: as §1

glucosamine-6-phosphate [5] = variants of: B1; test: self-cleavage kobs at 2500 uM GlcN6P; higher = faster cleavage; RNA array
How it was run: as §1

glucosamine-6-phosphate [6] = variants of: B1; test: self-cleavage kobs at 10000 uM GlcN6P; higher = faster cleavage; RNA array
How it was run: as §1

glucosamine-6-phosphate [7] = variants of: B1; test: self-cleavage kobs at 40 uM GlcN6P; higher = faster cleavage; RNA array
How it was run: as §1

| Variant | kcat (glucosamine-6-phosphate [1]) | KM (glucosamine-6-phosphate [2]) | self-cleavage kobs at 160 uM GlcN6P (glucosamine-6-phosphate [3]) | self-cleavage kobs at 640 uM GlcN6P (glucosamine-6-phosphate [4]) | self-cleavage kobs at 2500 uM GlcN6P (glucosamine-6-phosphate [5]) | self-cleavage kobs at 10000 uM GlcN6P (glucosamine-6-phosphate [6]) | self-cleavage kobs at 40 uM GlcN6P (glucosamine-6-phosphate [7]) |
| --- | --- | --- | --- | --- | --- | --- | --- |
| C16U G41C | 0.000304 ± 4.3e-05 s⁻¹ | 1030 ± 370 µM | 2.95e-05 ± 1.4e-05 s⁻¹ | 0.000139 ± 3.6e-05 s⁻¹ | 0.000244 ± 3.8e-05 s⁻¹ | 0.000246 ± 4.5e-05 s⁻¹ |  |
| C16A A42G | 0.00215 ± 0.00056 s⁻¹ | 2550 ± 900 µM | 0.000111 ± 2.3e-05 s⁻¹ | 0.00062 ± 0.00012 s⁻¹ | 0.00103 ± 0.0002 s⁻¹ | 0.00165 ± 0.00043 s⁻¹ | 3.27e-05 ± 1.1e-05 s⁻¹ |
| C16A C70G | 4.18e-05 ± 5e-06 s⁻¹ |  |  | 3.86e-05 ± 1.5e-05 s⁻¹ | 5.28e-05 ± 1e-05 s⁻¹ | 3.56e-05 ± 7.5e-06 s⁻¹ |  |
| A20G G37C C58A | 1.09e-05 ± 2.8e-06 s⁻¹ |  |  |  |  |  |  |
| C16G U30G | 0.000352 ± 3e-05 s⁻¹ | 4110 ± 700 µM |  | 4.35e-05 ± 1.3e-05 s⁻¹ | 0.000146 ± 2.8e-05 s⁻¹ | 0.000246 ± 3.2e-05 s⁻¹ |  |
| A15U G38A C67A C68U | 2.38e-05 ± 7.1e-06 s⁻¹ |  |  |  |  |  |  |
| C16U G37U G51C | < 1e-05 s⁻¹ |  | < 1e-05 s⁻¹ | < 1e-05 s⁻¹ |  |  | < 1e-05 s⁻¹ |
| A15U A52U | 0.000143 ± 1.2e-05 s⁻¹ | 1610 ± 370 µM |  | 3.6e-05 ± 1e-05 s⁻¹ | 9.15e-05 ± 9.9e-06 s⁻¹ | 0.000119 ± 1.5e-05 s⁻¹ | < 1e-05 s⁻¹ |
| C16G U31G | 0.000843 ± 0.00018 s⁻¹ | 2360 ± 940 µM | 4.98e-05 ± 1.6e-05 s⁻¹ | 0.000186 ± 4.5e-05 s⁻¹ | 0.000366 ± 0.0001 s⁻¹ | 0.00071 ± 0.0001 s⁻¹ | 4.37e-05 ± 1.7e-05 s⁻¹ |
| C16G U31C | 0.000606 ± 0.00011 s⁻¹ | 3720 ± 980 µM |  | 8.88e-05 ± 1.7e-05 s⁻¹ | 0.000269 ± 4.6e-05 s⁻¹ | 0.000401 ± 0.00011 s⁻¹ |  |
| A15U C71A | 0.000688 ± 4.8e-05 s⁻¹ | 1050 ± 120 µM | 8.62e-05 ± 8.8e-06 s⁻¹ | 0.000278 ± 3.4e-05 s⁻¹ | 0.000497 ± 6.4e-05 s⁻¹ | 0.000605 ± 7e-05 s⁻¹ | 3.22e-05 ± 8.9e-06 s⁻¹ |
| C16U A42U | 0.000129 ± 1e-05 s⁻¹ | 903 ± 300 µM |  | 4.79e-05 ± 1.9e-05 s⁻¹ | 0.000107 ± 2.2e-05 s⁻¹ | 0.000115 ± 1.7e-05 s⁻¹ |  |
| G29A A33C | 5.32e-05 ± 1.2e-05 s⁻¹ |  |  |  | 5.47e-05 ± 1.8e-05 s⁻¹ | 4.65e-05 ± 1.4e-05 s⁻¹ | < 1e-05 s⁻¹ |
| C16U C61A | 1.08e-05 ± 2.3e-06 s⁻¹ |  |  |  |  |  |  |
| A15G U56A | 0.00941 ± 0.0033 s⁻¹ | 1700 ± 790 µM | 0.000554 ± 9.9e-05 s⁻¹ | 0.00267 ± 0.00031 s⁻¹ | 0.00536 ± 0.0015 s⁻¹ | 0.00825 ± 0.0011 s⁻¹ | 0.000313 ± 3.4e-05 s⁻¹ |
| A15U U55C | 0.00268 ± 0.0003 s⁻¹ | 915 ± 160 µM | 0.00039 ± 6.4e-05 s⁻¹ | 0.00136 ± 0.00052 s⁻¹ | 0.00158 ± 0.00036 s⁻¹ | 0.00269 ± 0.00038 s⁻¹ | 0.000117 ± 2.1e-05 s⁻¹ |
| A15U U65A | 0.000377 ± 6.3e-05 s⁻¹ | 1080 ± 410 µM | 6.26e-05 ± 2.2e-05 s⁻¹ | 0.000146 ± 2.3e-05 s⁻¹ | 0.00021 ± 4.1e-05 s⁻¹ | 0.00039 ± 5.6e-05 s⁻¹ |  |
| C19A C67G | 0.000349 ± 4.1e-05 s⁻¹ | 295 ± 93 µM | 0.000171 ± 4.8e-05 s⁻¹ | 0.000207 ± 7.2e-05 s⁻¹ | 0.000309 ± 7.1e-05 s⁻¹ | 0.000347 ± 7.3e-05 s⁻¹ |  |
| C16U G66C | 0.000514 ± 9.1e-05 s⁻¹ | 657 ± 250 µM | 9.64e-05 ± 2.1e-05 s⁻¹ | 0.000282 ± 4e-05 s⁻¹ | 0.000496 ± 7.3e-05 s⁻¹ | 0.000398 ± 7.3e-05 s⁻¹ |  |
| C16U G37U | < 1e-05 s⁻¹ |  |  |  |  |  | < 1e-05 s⁻¹ |
| C16A U54G | 0.00103 ± 0.0004 s⁻¹ |  | 9.7e-05 ± 1.9e-05 s⁻¹ | 0.00029 ± 4.8e-05 s⁻¹ | 0.000532 ± 9.9e-05 s⁻¹ | 0.00141 ± 0.00027 s⁻¹ | 4.66e-05 ± 1e-05 s⁻¹ |
| C16A C61G | 1.13e-05 ± 1.7e-08 s⁻¹ | 158.6 ± 1.5 µM |  |  |  |  |  |
| A15U U54A | 0.00741 ± 0.001 s⁻¹ | 1360 ± 360 µM | 0.00059 ± 0.00026 s⁻¹ | 0.00262 ± 0.00048 s⁻¹ | 0.00516 ± 0.0014 s⁻¹ | 0.00623 ± 0.0012 s⁻¹ |  |
| C16G U45G | 0.000908 ± 7.3e-05 s⁻¹ | 2510 ± 380 µM | 4.29e-05 ± 1.9e-05 s⁻¹ | 0.000199 ± 3.8e-05 s⁻¹ | 0.000466 ± 0.00011 s⁻¹ | 0.000718 ± 9.7e-05 s⁻¹ |  |
| A15U A39C | 0.00112 ± 0.00025 s⁻¹ | 1960 ± 980 µM |  | 0.000287 ± 3.8e-05 s⁻¹ | 0.000499 ± 5.7e-05 s⁻¹ | 0.00102 ± 7.3e-05 s⁻¹ | 3.4e-05 ± 6.3e-06 s⁻¹ |
| C16G A39G | 0.0108 ± 0.0041 s⁻¹ |  | 0.000353 ± 0.00011 s⁻¹ | 0.00194 ± 0.00038 s⁻¹ | 0.00841 ± 0.0019 s⁻¹ | 0.00779 ± 0.0013 s⁻¹ | 0.000228 ± 4.9e-05 s⁻¹ |
| A15G U65C | 0.000964 ± 0.00027 s⁻¹ |  | 7.34e-05 ± 2.9e-05 s⁻¹ | 0.00026 ± 5e-05 s⁻¹ | 0.000852 ± 0.00013 s⁻¹ | 0.000673 ± 0.00014 s⁻¹ |  |
| A15U A53G | 0.00765 ± 0.0013 s⁻¹ | 1990 ± 520 µM | 0.000531 ± 6.8e-05 s⁻¹ | 0.0015 ± 0.0002 s⁻¹ | 0.00373 ± 0.00055 s⁻¹ | 0.00681 ± 0.00053 s⁻¹ | 0.00019 ± 1.8e-05 s⁻¹ |
| C16A C71G | 6.32e-05 ± 9.8e-06 s⁻¹ |  | 3.88e-05 ± 1.5e-05 s⁻¹ | 7.21e-05 ± 1.7e-05 s⁻¹ | 9.36e-05 ± 1.5e-05 s⁻¹ | 5.48e-05 ± 6.9e-06 s⁻¹ |  |
| C16A G62A | < 1e-05 s⁻¹ |  | < 1e-05 s⁻¹ |  |  |  |  |
